Here are results for 2 molecules from patent US20160376366A1 (IMMUNOMEDICS, published 2016).

For assay [1], the target named is T1, CD22 on CD22+ Daudi cells and on B cells within PBMCs (human, UniProt P20273 20-847).
T1 construct: whole, on cells; The target was presented on human cells; also called human CD22
Briefly: flow cytometry (MFI) on CD22+ Daudi cells. The protocol:
(§1) FIG. 3. […] Binding activity at indicated concentrations is given as the MFI. Measurements were performed in triplicate; standard deviations are shown as bars.
(§2) Cells were pelleted at 200 g at 4° C. for 5 min and washed twice with 500 μl of FACS buffer. For detection of bound antibodies, cells were incubated with saturating amounts of FITC conjugated F(ab) Fragment goat anti-Human IgG, Fc specific (13 μg/ml; Jackson Immuno Research, West Grove, Pa.) for 45 min at 4° C. and washed again with 500 μl of FACS buffer. Stained cells were analyzed on a FACSCAN™ Flow Cytometer (BD Bioscience, San Jose, Calif.), and median fluorescence intensity (MFI) was calculated using […]™ software (BD Bioscience).
On the technique in general: In flow cytometry, cells or beads pass a laser one at a time.

In assay [2] the target is T1, CD22 on CD22+ Daudi cells and on B …. Briefly: flow cytometry on CD22+ Daudi cells; reference hLL2 IgG. The protocol:
as §1, §2

The target is the same in assay [3]. Briefly: ELISA on CD22+ Daudi cells (FIG. 2); reference hLL2.
Assay [4] shares this target. Briefly: flow cytometry on CD22+ Daudi cells, MFI, FITC anti-human Fc detection. As for the experimental part: as §1, §2
For assay [5] the target is unchanged. The experiment in a line: ELISA on CD22+ Daudi cells.

B1: humanized RFB4 (hRFB4) anti-CD22 antibody, IgG (antibody, V domains shown)
VH: QVQLVQSGAEVKKPGSSVKVSCKASGFTFSIYDMSWVRQAPGQGLEWVAYISSGGGTTYYPDTVKGRFTITADESTNTAYMELSSLRSEDTAFYFCARHSGYGSSYGVLFAYWGQGTLVTVSS
VL: DIQLTQSPSSLSASVGDRVTISCRASQDISNYLNWYQQKPGKAPKLLIYYTSILHSGVPSRFSGSGSGTDYTFTISSLQPEDIATYYCQQGNTLPWTFGGGTKVQIKR
notes: RFB4 CDRs were inserted into the FR and constant regions of hLL2; also called hRFB4 IgG
For orientation: EC50 means the concentration giving half of the maximal effect. Low values mean higher potency in that assay, high ones lower potency in that assay. As to B1, the EC50 in assay [1] was 0.055 µg/mL; in assay [4], 0.4 nM. In addition, the “fold higher affinity (EC50) than hLL2” value in assay [2] stood at 19 fold. Besides, the “fold higher binding affinity than hLL2” value in assay [3] turned out to be 10 fold.

B2: humanized anti-CD22 LL2 antibody (hLL2, epratuzumab), IgG (antibody, V domains shown)
VH: QVQLQQSGAEVKKPGSSVKVSCKASGYTFTSYWLHWVRQAPGQGLEWIGYIYPRNDYTEYNQNFKDKATITADESTNTAYMELSSLRSEDTAFYFCARRDITTFYWGQGTTVTVSS
VL: DIQLTQSPSSLSASVGDRVTMSCKSSQSVLYSANHKNYLAWYQQKPGKAPKLLIYWASTRESGVPSRFSGSGSGTDFTFTISSLQPEDIATYYCHQYLSSWTFGGGTKVQIKR
notes: Tested as IgG with human constant regions; also called hLL2 IgG
One may read the Kd as the free concentration of one partner at which half of the binding sites on the other are occupied at equilibrium, for simple one-to-one binding. High values mean weaker binding, low ones tighter binding. For the molecule B2, the EC50 in assay [1] came to 1.03 µg/mL; in assay [4], 6.9 nM. The molecule also returned a Kd in assay [5] of 7.6 nM.
